# Biological target: Porcine Epidemic Diarrhea Virus Spike ectodomain, Sf9 expressed (Porcine epidemic diarrhea virus (PEDV) USA/Colorado/2013) (UniProt Q91AV1)
# Assay: cryo-EM structure
substance,measurement,value
"Porcine Epidemic Diarrhea Virus Spike ectodomain, Sf9 expressed (from UniProt Q91AV1 26-1322) (domain or fragment)",stoichiometry N,3
